Tests used:
GAL4 reporter = test: GAL4 DBD-TIF2 fusion CAT reporter transactivation assay; type: cell-based; details: Cos-1 and/or HeLa cells
How it was run: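 Transiently transfected HeLa and Cos-1 cells received plasmids (3 μg; 1-10 μg in titration) expressing TIF2 regions or mutants fused to GAL4 DBD(1-147), plus 1 μg (17m)5-G-CAT reporter. CAT activity measured by TLC phosphoimaging or CAT ELISA, normalized to cotransfected β-galactosidase, expressed as fold over GAL4 DBD alone; mean of ≥3 experiments.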

[1] = test system: AF-2 activity of ER, RXRα and RARα; test: dominant negative effect on NR AF-2 activity, (17m)5-TATA-CAT reporter; type: cell-based; details: HeLa and Cos-1 cells
Description: FIG. 12(a-d). The isolated nuclear receptor-interacting domain (ND) of TIF2 acts dominant-negatively on the transcriptional activation by the ER, RXR and RAR LBDs. The mean value of induction obtained from the quantitation of at least three experiments (relative to the respective receptor LBD activity in absence of recombinant TIF2) is indicated below each panel. Expression levels of TIF2, TIF2.1 and TIF2.5 were routinely verified by Western blot with mouse monoclonal antibody 3Ti3C11 directed against a region of TIF2.5 (not shown).
(b-d) Full length TIF2 and the coactivator fragment TIF2.1 enhance, whereas the nuclear receptor interacting domain TJF2.5 blocks the activity of the ER, RXR and RAR LBDs. Cos-1 and HeLa cells were cotransfected with 1 μg of the (17m)5-TATA-CAT reporter and 0.2 μg of the expression vector encoding the respective GAL DBD-fusion of hERα(EF), mRXRα(DE) or mRARα(DEF).
Assuming that TIF2 or coactivators recognizing the TIF2 interacting surface on NR LBDs, generally mediate the AF-2 function of NRs, the NID containing TIF2.5 should exert its dominant negative activity not only on ER, but also on other NRs, independently of the cellular context. We therefore analyzed the effect of TIF2.5 on the AF-2 activity of ER, RXRα and RARα in HeLa and in Cos-1 cells (FIGS. 12b-d).

ER, RARα and RXRα LBDs = test: GST pull-down of TIF2 polypeptides with NR LBDs; type: binding; details: in vitro, with or without 10^−6 M ligand
Description: (b) Mapping of the nuclear receptor-interacting domain of TIF2.
(c-d) Interaction of TIF2 NID mutants with NRs in vitro. […] For quantification of point mutant interactions, see below.
(e-f) Effect of TIF2 NID point mutations on stimulation of NR AF-2 activity. Cos-1 cells were cotransfected with 1 μg of the (17m)5-TATA-CAT reporter, 0.2 μg of GAL-hERα(EF) or GAL-mRXRα(DE), and 2.5 μg of the TIF2.1 wildtype or mutated fragments, as indicated. […] Each bar represents the mean value obtained from at least three (interaction) or at least four (transactivation) experiments, respectively; standard deviations are indicated. Note that the absolute values for TIF2.1 wildtype activity varied by ±16% when cotransfected with GAL-hERα(EF) and by ±34% when cotransfected with GAL-mRXRα(DE). In the in-vitro-interaction assays, the affinity of the TIF2.1 wildtype standard varied by less than ±25%. Expression levels of TIF2 mutants in the cells were verified by Western blot (not shown) with mouse monoclonal antibody 3Ti3F1, which is directed against an epitope outside the mutated area.
To further delineate the TIF2 NR interaction domain (NID), we studied the interaction between a series of TIF2 deletion mutants and the ER or RARα LBDs, using GST-fusion protein-based in vitro assays. In both cases, an NWD was mapped to the central region of TIF2 (amino acids 624-869 in mutant TIF2.5; see FIGS. 7a and b). No additional NWD could be identified in the N- or C-termini of TIF2 (FIGS. 7a and b; mutants TIF2.0, TIF2.2 and TIF2.7). Note that, in contrast, SRC-1, a paralogue of TIF2, apparently harbours two distinct non-contiguous NIDs located in the central and C-terminal regions (Onate, S. A. et al., Science 270:1354-1357 (1995), Yao, T. P. et al., Proc. Natl. Acad. Sci. USA 93:10626-10631 (1996); Zhu, Y. et al., Gene Epression 6:185-195 (1996)).

RARα LBD = test: yeast PL3 (ERE)3-URA3 reporter, OMP decase activity, RARα; type: cell-based, human; details: absence of ligand
Description: (§1) FIG. 11. The TIF2.1 coactivator fragment efficiently stimulates the ligand-dependent AF-2 of ER, RAR and RXR in yeast. No stimulatory effect of TIF2.1 on the isolated AF-1 of ER (HE15) is observable. Plasmids expressing different regions of hERα (white), hRARα (grey) and mRXRα (black) fused to the ER DBD (hERα(C)) were introduced into the yeast reporter strain PL3 (α) together with TIF2.1 as indicated. […] OMP decase activities determined on each cell-free extract are expressed in nmoyrnin/mg protein; the mean and standard deviation of at least four experiments are shown.
(§2) We therefore investigated whether TIF2 could enhance transcriptional activation by various NR constructs expressed in S. cerevisiae. Both, NRs and TIF2.1 were expressed from multicopy plasmids in the yeast strain PL3 (a), which contains a URA3 reporter gene under the control of three estrogen response elements ((ERE)3-URA3; Pierrat, B. et al., Gene 119:237-245 (1992)).
(§3) In yeast, the hERa constructs were expressed from the following YEp90-based plasmids: HEGO (hERα, YEp90-HEGO, amino acids 1-595), HE15 (YEp90-HE15, amino acids 1-282), and HEG19 (YEp90-HEG19, amino acids 179-595) (all Pierrat, B. et al., Gene 119:237-245 (1992)), HE179-338 (YEp90-HE179-338; Pierrat, B. et al., Gene 143:193-200 (1994)). […]

GAL-CBP = test: two hybrid analysis of CBP-TIF2 interaction in HeLa cells; type: cell-based
Description: (e) Two hybrid analysis of the CBP-TIF2 interaction in mammalian cells in vivo. HeLa cells were transfected with 0.2 μg of the GAL4 or GALA-CBP (expressing CBP residues 1872 to 2165) expression vectors together with 0.2 μg of the VP16 or VPI6-TF2 expression vectors in the presence of 2 μg of (17m)5-TATA-CAT reporter plasmid. Fold induction relative to the GAL-CBP activity is indicated. The mean of three experiments is shown; in each case, values varied by less than ±20%.
HeLa cells were transfected with 0.2 μg of GAL4 or GAL-CBP expression vectors together with 0.2 μg of VP16 or VP16-TIF2.13 expression vectors in the presence of 1 μg of (17m)5-TATA-CAT reporter plasmid. Data are represented as fold induction of the activity seen with GAL-CBP alone. The mean and standard, deviation obtained from ten experiments are shown. The expression levels were confirmed by Western blotting with antibodies directed against GAL4 DBD and VP16 AAD (data not shown).
(§4) Furthermore, it was reported that SRC-1, which belongs to the same gene family as TIF2, interacts with CBP and p300 (Kamei, Y. et al., Cell 85:403-414 (1996); Yao, T. P. et al., Proc. Natl. Acad. Sci. USA 93:10626-10631 (1996); Hanstein, B., et al., Proc. Natl. Acad Sci USA 93:11540-11545 (1996)). Using GST-fusion protein-based interaction and animal cell-based two hybrid assays, we therefore analyzed whether TIF2 could also interact with CBP. […] A GST-CBP fusion protein was expressed in E. coli and used for puU-down assays with in vitro translated TIF2 polypeptides (FIG. 7d).

RXRα AF-2 = test: yeast PL3 (ERE)3-URA3 reporter, OMP decase activity, RXRα; type: cell-based, mouse; details: with ligand
Description: as §1, §2, §3

[2] = test system: CBP (residues 1872 to 2165); test: GST-CBP pull-down of TIF2 polypeptides; type: binding
Description: (d) Mapping of the CBP-interacting domain of TIF2. GST puld own experiments were performed with ^35S-labeled in-vitro-translated TIF2 polypeptides and bacterially produced GST and GST-CBP (expressing CBP residues 1872 to 2165).
(c) Interaction of TIF2 AF-1 mutants with CBP in vitro. GST pull-down experiments were performed with ^35S-labeled in-vitro-translated GAL-TIF2 fusion proteins and bacterially produced GST and GST-CBP.
(c) Interaction of TIF2.13 wildtype and TIF2.13 mutants with CBP in vitro. GST pull-down experiments were performed with ^35S-labeled in-vitro-translated VP16-TIF2.13 polypeptides and bacterially produced GST and GST-CBP.
as §4

histone = histone acetylase activity of purified TIF2 fragments; type: biochemical; details: bacterially-expressed purified fragment
Description: TIF2 can apparently fulfill at least two mediator functions, (i) as a “bridging factor” between the AF-2 function of nuclear receptors and CBP via its AD1 activation domain and (ii) as a transcriptional mediator through as yet unknown CBP binding-independent route(s) via its AD2 function.

ER (HEGO) = test: yeast PL3 (ERE)3-URA3 reporter, OMP decase activity, ER; type: cell-based, human; details: with estradiol
Description: as §1, §2, §3

Row | binding to NRs (ER, RARα LBDs) (ER, RARα and RXRα LBDs) | effect on transactivation by RARα LBD (RARα LBD) | effect on AF-2 activity of liganded RXRα (RXRα AF-2) | binding to GST-CBP in vitro [2] | effect on transcriptional activity of ER (ER (HEGO)) | Molecule | transcriptional activation of GAL4 reporter by GAL4 DBD fusion (GAL4 reporter) | effect on NR AF-2 activity [1] | interaction with GAL-CBP, two hybrid (GAL-CBP) | histone acetylase activity (histone)
1 | can bind to NRs | – | – | – | – | TIF2.5: TIF2 fragment amino acids 624-869, isolated NID (protein) ERADGQSRLHDSKGQTKLLQLLTTKSDQMEPSPLASSLSDTNKDSTGSLPGSGSTHGTSLKEKHKILHRLLQDSSSPVDLAKLTAEATGKDLSQESSSTAPGSEVTIKQEPVSPKKKENALLRYLLDKDDTKDIGLPEITPKLERLDSKTDPASNTKLIAMKTEKEEMSFEPGDQPGSELDNLEEILDDLQNSQLPQLFPDTRPGAPAGSVDKQAIINDLMQLTAENSPVTPVGAQKTALRISQST | cannot activate transcription | dose-dependent inhibition of the NR AF-2 activity | – | –
2 | – | very efficiently enhanced | stimulated | also interacted with GST-CBP | further enhanced | TIF2.1: cytoplasmic TIF2 coactivator fragment, amino acids 624 to 1287 of SEQ ID NO:2 (protein) ERADGQSRLHDSKGQTKLLQLLTTKSDQMEPSPLASSLSDTNKDSTGSLPGSGSTHGTSLKEKHKILHRLLQDSSSPVDLAKLTAEATGKDLSQESSSTAPGSEVTIKQEPVSPKKKENALLRYLLDKDDTKDIGLPEITPKLERLDSKTDPASNTKLIAMKTEKEEMSFEPGDQPGSELDNLEEILDDLQNSQLPQLFPDTRPGAPAGSVDKQAIINDLMQLTAENSPVTPVGAQKTALRISQSTFNNPRPGQLGRLLPNQNLPLDITLQSPTGAGPFPPIRNSSPYSVIPQPGMMGNQGMIGNQGNLGNSSTGMIGNSASRPTMPSGEWAPQSSAVRVTCAATTSAMNRPVQGGMIRNPAASIPMRPSSQPGQRQTLQSQVMNIGPSELEMNMGGPQYSQQQAPPNQTAPWPESILPIDQASFASQNRQPFGSSPDDLLCPHPAAESPSDEGALLDQLYLALRNFDGLEEIDRALGIPELVSQSQAVDPEQFSSQDSNIMLEQKAPVFPQQYASQAQMAQGSYSPMQDPNFHTMGQRPSYATLRMQPRPGLRPTGLVQNQPNQLRLQLQHRLQAQQNRQPLMNQISNVSNVNLTLRPGVPTQAPINAQMLAQRQREILNQHLRQRQMHQQQQVQQRTLMMRGQGLNMTPSMVAPSGMPATMS | strongly transactivated | – | scored positive | none

Source: patent publication US6861508B2, “Transcriptional intermediary factor-2” (Institut National de la Sante et de la Recherche Medicale, priority 1996, dated 2005)
